Columns and labels:
[1] = target: T1, GST-HP1γR38/9K (full-length mouse HP1γ with R38 and R39 mutated to lysine) (mouse, UniProt P23198 1-183, R38/9K | R38/9K); assay: pull-down; H3K9me3 or unmethylated H3(1–16) peptides linked to Dynabeads MyOne streptavidin T1; eluted GST-HP1 in HBS-EP (300 mM NaCl, 10 mM HEPES KOH pH 7.4, 5 mM EDTA, 0.2% NP-40); SDS-PAGE, Coomassie-blue staining; conditions: both partners purified
T1 construct: heterochromatin protein 1 gamma (HP1γ), mouse, full length, R38K and R39K (retains the positive charge); source: E. coli, expressed as GST fusion protein (pGEX-2T), purified

[2] = target: T2, GST-HP1γR38/9A (full-length mouse HP1γ with alanine substitutions at amino acids 38 and 39) (mouse, UniProt P23198 1-183, R38/9A | R38/9A); assay: as above; conditions: both partners purified
T2 construct: heterochromatin protein 1 gamma (HP1γ), mouse, full length, R38A and R39A (designed to mimic citrullination); also called double alanine mutant; source: E. coli, expressed as GST fusion protein (pGEX-2T), purified
T2 sequence (P23198 other isoform, or with tags, fused parts or gaps R38/9A | R38/9A | R38/9A | R38/9A): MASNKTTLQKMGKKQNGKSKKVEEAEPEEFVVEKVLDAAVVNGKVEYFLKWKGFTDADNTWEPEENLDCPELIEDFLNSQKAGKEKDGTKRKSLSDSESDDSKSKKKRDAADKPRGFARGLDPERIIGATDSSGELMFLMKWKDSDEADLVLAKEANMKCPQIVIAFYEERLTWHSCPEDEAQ

T1 sequence (P23198 other isoform, or with tags, fused parts or gaps R38/9K | R38/9K | R38/9K | R38/9K): as the sequence (P23198 other isoform, or with tags, fused parts or gaps R38/9A | R38/9A | R38/9A | R38/9A) above, with A38K, A39K counted along it

binding result [1]: binds
binding result [2]: binds
B1: H3K9me3(1–16) peptide (peptide)
peptide: ARTKQTARKSTGGKAP
modifications: trimethyl-lysine at K9 (K(me3)); biotin at the C-terminus
notes: histone H3, residues 1-16; also called methylated H3K9me3(1–16) peptides; H3K9me3 peptides
